Test results taken from the supplement of paper PMC9170038.

System: MS2 coat protein
Assay: apparent KD of MS2 coat protein; designed switch direction (-1 OFF switch, 1 ON switch): -1; higher = weaker reporter binding
Summary of the method: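 Each step of the titration lasted 0.8–1.5 h at the lowest concentration and 10–20 min at the highest. The protein, SNAP-549-labelled MS2 coat protein, went from 0.7 or 1.5 nM doubling to 3 µM over RNA switches transcribed on Illumina chips by stalled E. coli RNA polymerase. Normalised cluster fluorescence was curve-fitted, and the per-design median over clusters is given as apparent KD.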

[1] = input ligand: microRNA oligo, concentration not stated
[2] = Eterna round: R95, input ligand: FMN 200 uM
[3] = Eterna round: R95, input ligand: microRNA oligo, concentration not stated
[4] = Eterna round: R95, input ligand: none

| Sequence | apparent KD of MS2 coat protein (input ligand: FMN 200 uM) [nM] | apparent KD of MS2 coat protein [1] [nM] | apparent KD of MS2 coat protein (input ligand: none) [nM] | apparent KD of MS2 coat protein [2] [nM] | apparent KD of MS2 coat protein [3] [nM] | apparent KD of MS2 coat protein [4] [nM] |
| --- | --- | --- | --- | --- | --- | --- |
| UACAUGAGGAUCACCCAUGUUUUGUCGUGUAUGGUAUUUAUCUAGGAUAUCAAUCUAAUUAUUUAUGAGAAGGAGAAUAUUAAU [JMF's solution 50] (Eterna round: R96, puzzle: Exclusion NG 3) | 47.9 | 31.2 | 42.4 | – | – | – |
| UACAUGAGGAUCACCCAUGUUUUGUCGUGUAUGGUAUUUAUCUAGGAUAUCAAUCUAUUUAUGUAUGAGAAGGAGAAUAUUAAU [JMF's solution 55] (Eterna round: R96, puzzle: Exclusion NG 3) | 42.3 | 28.9 | 41.1 | – | – | – |
| UACAUGAGGAUCACCCAUGUUUUGUCGUGUAUGGUAUUUAUCUAGGAUAUCAAUUUGGUUAUUUAUGAGAAGGAGAAUAUUAAU [JMF's solution 66] (Eterna round: R96, puzzle: Exclusion NG 3) | 48.9 | 31.6 | 37.2 | – | – | – |
| UACAUGAGGAUCACCCAUGUUUUGUCGUGUAUGGUAUUUAUCUAGGAUAUCAUUUGAUUUAUUUAUGAGAAGGAGAAUAUUAAU [JMF's solution 100] (Eterna round: R96, puzzle: Exclusion NG 3) | 34.3 | 28.1 | 29.8 | – | – | – |
| UACAUGAGGAUCACCCAUGUUUUGUCGUGUAUGGUAUUUAUCUAGGAUAUCAUUUUAUUUAGUUAUGAGAAGGAGAAUAUUAAU [JMF's solution 79] (Eterna round: R96, puzzle: Exclusion NG 3) | – | 36.1 | – | – | – | – |
| UACAUGAGGAUCACCCAUGUUUUGUCGUGUAUGGUAUUUAUCUAGGAUAUCAUUUUAUUUAUUUAUGAGAAGGAGAAUAUUAAU [JMF's solution 6] (Eterna round: R96, puzzle: Exclusion NG 3) | 49.4 | 27 | 37.2 | – | – | – |
| UACCGGCGGACCGAAGCUUUUUGCUUGUCUUAUACUACAACAUGAGGAUCACCCAUGUGGUGGUGGUCCGUUGUAGU [JL ViennaUCT Bitein mod 2] (puzzle: Sensor v3, turn-off variant 2) | – | – | – | 54.4 | 17.8 | 47.3 |
| UACCUGAGGCAAAGCUUUAGGUAAACAUGAGGAUCACCCAUGUAGGAUAUGGUAGGCUUUGCUUACCAGAAGGACAUGUUAAUU [Mat - Exclusion NG 3 - Mod of JL - D33] (Eterna round: R96, puzzle: Exclusion NG 3) | 215 | 41.9 | 59.7 | – | – | – |
| UACUUCCGAGGAUAUACAUGAGGAUCACCCAUGUGCUUCAGCAUUGAAAGAUGCAUGGGUAGAAGGCGGUAGUU [LRO-Excl3-18] (puzzle: Exclusion 3) | – | – | – | 253 | 297 | 171 |
| UACUUCUGAGGAUAUACAUAGAUUUACAUGAGGAUCACCCAUGUUCCUCUAUGUAUAAAUGUAGAAGGCAGAAGAU [Mat - Exclusion 5 - JL Mod - D61] (Eterna round: R97, puzzle: Exclusion 5) | 87.8 | – | 16.7 | – | – | – |
| UAGAUACAUGAGGAUCACCCAUGUGAGGAUAUGAAUAAGAAUAGAUAAGAUAGUAGAAUCAGAAGGCACAAUGG [Starry Exclusion 1.2] (puzzle: Exclusion 1) | – | – | – | 70.1 | 47.4 | 51.8 |
| UAGAUACAUGAGGAUCACCCAUGUGAGGAUAUGAGAAUUAUAUUAAAUGAAUGAAUUUUCAGAAGGCACAAAGG [JR_Ex1_Sub051] (Eterna round: R97, puzzle: Exclusion 1) | 482 | – | 221 | – | – | – |
| UAGAUACAUGAGGAUCACCCAUGUGAGGAUAUGAGGGUUAGCUUAAAUGGGCUGACUUUCAGAAGGCACAAGAA [JR_Ex1_Sub057] (Eterna round: R97, puzzle: Exclusion 1) | 94.7 | – | 43 | – | – | – |
| UAGCAACGAGGAUAUGCGGGCCUGAACCUAAAGUCGACCUUACAUGAGGAUCACCCAUGUAGAAGGCGUAGUGU [Eternabot (L2) Solution 71] (Eterna round: R97, puzzle: Exclusion 2) | 16.8 | – | 18.3 | – | – | – |
| UAGCAGAGAGGAUAUACAUUCAUCACCCGCGCAUCAUGCGCACAUGAGGAUCACCCAUGUAGAAGGCUCGUGCC [EX2 C.27] (Eterna round: R97, puzzle: Exclusion 2) | 74.3 | – | 28.2 | – | – | – |
| UAGGAGAGAGUGAGGAUAUCCGGAAGAGAGGAUCAGGAGAAGGCACAUGAGGAUCACCCAUGUAAAAGAGGGAA [I think I solved risk of not working] (Eterna round: R97, puzzle: Brourd's mod of Exclusion 4) | 63.5 | – | 51.9 | – | – | – |
| UAGGAGCAAGGAUAUACGAGGAUAUGGUAGUUUGUAGAGUGACAUGAGGAUCACCCAUGUAGAAGGUGCGUGUG [JR_Exclu2_Sub0100] (puzzle: Exclusion 2) | – | – | – | – | 82.9 | – |
| UAGGUGUGAGGAUAUGGUAAAGAAAAGAUGAUGAAAGAACUCCAGAAGGCACAUGAGGAUCACCCAUGUAGAUG [Mat - Exclusion 4 - Mod of JL - D32] (puzzle: Exclusion 4) | – | – | – | – | 28.7 | – |
| UAGUACCAAGGAUAUGCGUGACCAUGGCCUCCGUGGUAGAGACAUGAGGAUCACCCAUGUAGAAGGUGGAUAAC [Eternabot (L1) Solution 74] (Eterna round: R97, puzzle: Exclusion 2) | 401 | – | 335 | – | – | – |
| UAGUUAUUCACAGGAUAUCGCCUCUUAUUACAUGAGGAUCACCCAUGUUUAUUUUGUUACAUGUUCGAGAAGGGUGUAGCCGUU [JR_ExcNG2_Sub045] (Eterna round: R96, puzzle: Exclusion NG 2) | – | 258 | – | – | – | – |
| UAUAAUACAUAGGAUAUCGAAAUAAUCAUUUAACGAGAAGGAUGAACAUGAGGAUCACCCAUGUGGUAUCAUGG [Mat - Exclusion 6 - JL Mod - D11] (puzzle: Exclusion 6) | – | – | – | 379 | 328 | 319 |
| UAUAGACAUGAGGAUCACCCAUGUGAGGAUAUGUACAACAACAAGCCGGAAGCGGAAUACAGAAGGCACAAAUA [JR_Exclusion1_Sub029] (puzzle: Exclusion 1) | – | – | – | 36.8 | 35.7 | 51.4 |
| UAUAGGCGAGGAUAUACUAACAAACGGAUCGCCAAACAAGAACUUGAGGAUCACCCAAGUAGAAGGCGCAAUUG [Gezaonsoma] (Eterna round: R97, puzzle: Exclusion 2) | 15.8 | – | 24.1 | – | – | – |
